Assay in all cases: ITC
Data set [1] concerns the target T1, CstF-50;CstF-77ΔN;CstF-64RH (Homo sapiens;Homo sapiens;Homo sapiens, UniProt Q05048;Q12996;P33240 1-431;241-717;1-199, |del1-240|).
T1 sequence 1: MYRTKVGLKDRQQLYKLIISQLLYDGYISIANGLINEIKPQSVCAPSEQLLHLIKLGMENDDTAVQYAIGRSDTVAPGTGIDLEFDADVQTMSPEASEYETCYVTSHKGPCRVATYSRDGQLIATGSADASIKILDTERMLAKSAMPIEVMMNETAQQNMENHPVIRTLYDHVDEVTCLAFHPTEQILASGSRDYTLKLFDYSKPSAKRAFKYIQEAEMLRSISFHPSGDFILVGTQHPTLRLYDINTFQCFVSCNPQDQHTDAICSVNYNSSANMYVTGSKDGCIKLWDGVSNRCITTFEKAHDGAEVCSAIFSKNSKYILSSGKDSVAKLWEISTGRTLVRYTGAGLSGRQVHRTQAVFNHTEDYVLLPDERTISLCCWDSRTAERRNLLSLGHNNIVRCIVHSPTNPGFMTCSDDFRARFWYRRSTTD
T1 sequence 2: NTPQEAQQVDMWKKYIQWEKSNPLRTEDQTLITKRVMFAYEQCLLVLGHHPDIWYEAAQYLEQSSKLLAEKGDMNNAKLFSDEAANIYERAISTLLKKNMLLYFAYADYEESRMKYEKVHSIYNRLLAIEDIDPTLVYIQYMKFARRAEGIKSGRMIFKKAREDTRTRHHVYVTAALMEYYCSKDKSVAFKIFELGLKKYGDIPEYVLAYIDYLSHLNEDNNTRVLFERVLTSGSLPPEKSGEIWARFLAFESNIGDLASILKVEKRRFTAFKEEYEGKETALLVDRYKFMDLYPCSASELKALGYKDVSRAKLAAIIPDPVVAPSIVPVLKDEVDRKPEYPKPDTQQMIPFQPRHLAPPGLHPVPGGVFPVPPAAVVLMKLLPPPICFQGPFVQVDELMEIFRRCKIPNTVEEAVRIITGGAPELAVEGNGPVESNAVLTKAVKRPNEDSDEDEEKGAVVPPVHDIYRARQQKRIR
T1 sequence 3: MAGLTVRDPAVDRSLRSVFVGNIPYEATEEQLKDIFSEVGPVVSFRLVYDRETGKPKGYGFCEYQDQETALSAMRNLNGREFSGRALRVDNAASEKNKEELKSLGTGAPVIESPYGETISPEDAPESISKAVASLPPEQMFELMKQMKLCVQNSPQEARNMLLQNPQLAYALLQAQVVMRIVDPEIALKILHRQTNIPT

Data set [2] has as its target T1, CstF-50;CstF-77ΔN;CstF-64RH. The source holds these as a separate data set.
Data set [3] concerns the target T2, CstF-77ΔN;CstF-64RH (Homo sapiens;Homo sapiens, UniProt Q12996;P33240 241-717;1-199, del1-240|).
T2 sequence 1: T1 sequence 2
T2 sequence 2: T1 sequence 3

Data set [4] has as its target T1, CstF-50;CstF-77ΔN;CstF-64RH. This is another data set of the same source.
For data set [5], the target named is T2, CstF-77ΔN;CstF-64RH. This is another data set of the same source.
Another data set has as its target T3, CstF-64 RRM (Homo sapiens, UniProt P33240 16-94).
T3 sequence: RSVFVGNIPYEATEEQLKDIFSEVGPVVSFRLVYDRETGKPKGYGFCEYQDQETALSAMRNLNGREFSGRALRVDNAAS

The target of data set [6] is T2, CstF-77ΔN;CstF-64RH. The source holds these as a separate data set.
For data set [7], the target named is T1, CstF-50;CstF-77ΔN;CstF-64RH. This is another data set of the same source.

Read-outs that look alike come from different tables or passages of the source.

One may read the Kd as the concentration at which binding is half-saturated. A higher Kd goes with lower affinity.

GUGUGUGU (ssRNA) [GU8]: in data set [1], the binding signal is roughly 2.5 fold tighter than GU6.
As to ACACACACACACAC (ssRNA) [AC14], the binding result in data set [2] is reported as “no binding”.
Regarding GUGUGUGUGU (ssRNA) [GU10], the binding result in the data set with CstF-77ΔN;CstF-64RH [3] is on record as “binds”. This molecule also showed a Kd in data set [4] of roughly 500 nM.
Molecule GUGUGACCCUUUUU (ssRNA) [UUUUU-containing RNA] showed a Kd with CstF-77ΔN;CstF-64RH [5] of roughly 3700 nM.
Turning to GUGUGUGUGUGUGU (ssRNA) [GU14], the Kd with CstF-64 RRM was roughly 2500 nM; with CstF-77ΔN;CstF-64RH [6] it was roughly 160 nM; in data set [7], roughly 120 nM.

Values taken from article PMC5778602.
